This assay concerns CNA/B. The assay is described as follows: Affinity of CLMB T44E for CNA/B. Type of assay: binding. Particulars: glutamate for threonine at position 44; data not shown.

B1: CLMB^T44E (protein)
chain: MGLKMSCLKGFQMCVSSSSSSHDEAPVLNDKHLDVPDIIITPPEPTGMMLPRDLGSTVWLDETGSCPDDGEIDPEA
As to B1, the “affinity for CNA/B relative to CLMB” value is recorded as “failed to show increased affinity”.

The record behind these values is publication PMC12612047 (Nature Communications, 2025).
